From patent US20250188176A1 (INVETX, published 2025)
Numbering of substitutions follows the chain as printed.

T1: Extracellular domain (ECD) of the canine IL-4 receptor alpha-AviTag-His Tag (canine)
T1 construct: expressed in CHO cells; also called canine IL-4RA; canine IL4Ra
T1 chain: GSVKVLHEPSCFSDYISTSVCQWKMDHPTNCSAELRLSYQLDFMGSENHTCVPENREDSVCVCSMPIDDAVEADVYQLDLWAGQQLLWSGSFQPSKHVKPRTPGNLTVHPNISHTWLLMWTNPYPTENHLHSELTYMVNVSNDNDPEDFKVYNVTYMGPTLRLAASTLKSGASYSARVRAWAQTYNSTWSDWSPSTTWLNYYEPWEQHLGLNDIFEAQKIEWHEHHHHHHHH

T2: Extracellular domain (ECD) of the canine IL-4 receptor alpha-V5 epitope-AviTag-His Tag (canine)
T2 construct: monomeric form isolated by size exclusion; also called canine IL-4RA-V5-Avi-His; canine IL-4RA
T2 chain: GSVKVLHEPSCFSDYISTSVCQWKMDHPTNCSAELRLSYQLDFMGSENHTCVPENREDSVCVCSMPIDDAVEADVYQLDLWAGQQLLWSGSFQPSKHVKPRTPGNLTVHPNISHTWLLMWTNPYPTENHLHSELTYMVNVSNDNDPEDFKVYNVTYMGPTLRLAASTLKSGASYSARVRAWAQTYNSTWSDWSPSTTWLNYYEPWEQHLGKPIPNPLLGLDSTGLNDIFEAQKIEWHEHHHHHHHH

B1: 21188-H + 21188-L (antibody, V domains shown)
VH: EVQLVESGGDLVKPGGSLRLSCVASGFTFRDYAMTWVRQAPGKGLQWLSLISGSGGKTYYADAVKGRFTISRDNAKNTLYLQMNSLRAEDTAVYYCAVDRLTKTIRPQYYGLWHWGQGTLVTVSS
VL: DIVMTQTPLSLSVSPGETASISCRSSQSLTYSIGYNYLDWYMQKPGQSPQGLIYLGSKRASGVSDRFSGSGSGADFTLKISRVEADDAGVYYCMQGLQSPLGFGQGTKLEIKR
B2: GFmix_PTH-H + GFmix3_KTHS-L (antibody, V domains shown)
VH: B1 VH with T28P
VL: B1 VL with Q27K, Q98H, G102S
B3: TB640_005 (antibody, V domains shown)
VH: B1 VH with L48V, H114V
VL: B1 VL with T30L, M42L, S64P, A74T, K79R, D86N, A88T, G102T
notes: caninized IgG; also called TB640_005-H + TB640_005-L
B4: FJP05A03-H + GFmix_THS-L (antibody, V domains shown)
VH: B1 VH with F27L, T28P, T35A, H114V
VL: B1 VL with Q98H
B5: FJP05A03-H + FJP10A09-L (antibody, V domains shown)
VH: B1 VH with F27L, T28P, T35A, H114V
VL: B1 VL with Q98H, G102S
B6: FJP05A03-H + GFmix3_KTHS-L (antibody, V domains shown)
VH: B1 VH with F27L, T28P, T35A, H114V
VL: B1 VL with Q27K, Q98H, G102S
B7: GFmix_PTH-H + FJP10A09-L (antibody, V domains shown)
VH: B1 VH with T28P
VL: B1 VL with Q98H, G102S
B8: 21188-H + GFmix_THS-L (antibody, V domains shown)
VH: B1 VH
VL: B1 VL with Q98H
B9: 21188-H + FJP10F04-L (antibody, V domains shown)
VH: B1 VH
VL: B1 VL with Q27K, T30L, Q98H, G102T
B10: 21188-H + FJP10A09-L (antibody, V domains shown)
VH: B1 VH
VL: B1 VL with Q98H, G102S
B11: 21188-H + GFmix2_KTHG-L (antibody, V domains shown)
VH: B1 VH
VL: B1 VL with Q27K, Q98H
B12: 21188-H + GFmix3_KTHS-L (antibody, V domains shown)
VH: B1 VH
VL: B1 VL with Q27K, Q98H, G102S
B13: FJP05A03-H + 21188-L (antibody, V domains shown)
VH: B1 VH with F27L, T28P, T35A, H114V
VL: B1 VL
B14: FJP07H09-H + 21188-L (antibody, V domains shown)
VH: B1 VH with T35D, H114S
VL: B1 VL
B15: FJP06D01-H + 21188-L (antibody, V domains shown)
VH: B1 VH with T28P, T35D, H114V
VL: B1 VL
B16: Fjmix_PS-H + 21188-L (antibody, V domains shown)
VH: B1 VH with T28P, T35D, H114S
VL: B1 VL
B17: Gfmix_PTH-H + 21188-L (antibody, V domains shown)
VH: B1 VH with T28P
VL: B1 VL
B18: TB640_005 Fab-SASA VL-T102L (Fab, V domains shown)
VH: B1 VH with L48V, H114V
VL: B1 VL with T30L, M42L, S64P, A74T, K79R, D86N, A88T, G102L
notes: not shown: SASA tag then His-tag
B19: TB640_005 Fab-SASA VL-T102G (Fab, V domains shown)
VH: B1 VH with L48V, H114V
VL: B1 VL with T30L, M42L, S64P, A74T, K79R, D86N, A88T
notes: as for B18
B20: TB640_005 Fab-SASA VL-Y35M (Fab, V domains shown)
VH: B1 VH with L48V, H114V
VL: B1 VL with T30L, Y35M, M42L, S64P, A74T, K79R, D86N, A88T, G102T
notes: as for B18
B21: TB640_005 Fab-SASA VL-T102S (Fab, V domains shown)
VH: B1 VH with L48V, H114V
VL: B1 VL with T30L, M42L, S64P, A74T, K79R, D86N, A88T, G102S
notes: as for B18
B22: TB640_005 Fab-SASA VL-T102N (Fab, V domains shown)
VH: B1 VH with L48V, H114V
VL: B1 VL with T30L, M42L, S64P, A74T, K79R, D86N, A88T, G102N
notes: as for B18
B23: TB640_057 (antibody, V domains shown)
VH: B1 VH with L48V, L50T, S52T, K57N, V98K, T102S, K103I, Q108R, W113D, H114V
VL: DIVMTQTPLSLSVSPGETASISCRASQSLLYSIGYNYLDWYLQKPGQSPQGLIYLGSKRASGVPDRFSGSGSGTDFTLRISRVEANDTGVYYCMQAIQAPYTFGQGTKLEIKR
notes: caninized IgG
B24: TB640_109 (antibody, V domains shown)
VH: B1 VH with L48V, L50T, W113S, H114V
VL: B23 VL with I97L, Q98R, A99D
notes: caninized IgG

Molecular target: canine IL-4RA on canine DH82 cells (canine)
Experiment: cell-based or functional assay

Row | Binder | IC50: % inhibition of STAT6 phosphorylation (AlphaLISA pSTAT6) in canine DH82 cells stimulated with 20 ng/mL canine IL-4 [nM]
1 | B1 | 2.17
2 | B2 | 0.6

Molecular target: T1, Extracellular domain (ECD) of the …
Experiment: SPR, IgG captured via anti-dog Fc
Experimental: (§1) Both the heavy and light chain variants were evaluated for their binding kinetics to canine IL-4RA using SPR on a Biacore T200. The antibodies were captured using a CM5 Series S chip amine coupled with an anti-dog Fc antibody (Jackson Immunoresearch). […] The length of the association time was 120 s and the dissociation time was run for 600 s. The chip surface was regenerated with 10 mM glycine. Double reference-subtracted sensorgrams were fitted to a 1:1 binding model using Biacore T200 Evaluation software.
Six different combinations of heavy and light chain variants (Table 30) were co-transfected and produced as described above. The binding kinetics of the heavy and light chain variants to canine IL-4RA was determined using the SPR methods described above.

Row | Binder | Kd [nM] | koff [s⁻¹] | kon [M⁻¹ s⁻¹]
3 | B1 | 0.243 | 9.93e-05 | 410000
4 | B3 | 2.29 | 0.000486 | 212000
5 | B4 | 0.169 | 8.32e-05 | 492000
6 | B2 | 0.17 | 7.58e-05 | 447000
7 | B5 | 0.201 | 8.87e-05 | 442000
8 | B6 | 0.187 | 8.68e-05 | 466000
9 | B7 | 0.167 | 7e-05 | 419000

Molecular target: T1, Extracellular domain (ECD) of the …
Experiment: SPR, IgG captured via anti-dog Fc
Remark: another data set of the same source
Experimental: as §1

Row | Binder | Kd [nM] | koff [s⁻¹] | kon [M⁻¹ s⁻¹]
10 | B1 | 0.18 | 5.96e-05 | 332000
11 | B8 | 0.162 | 5.78e-05 | 357000
12 | B9 | 0.238 | 6.81e-05 | 286000
13 | B10 | 0.143 | 4.62e-05 | 324000
14 | B11 | 0.168 | 5.92e-05 | 354000
15 | B12 | 0.144 | 4.79e-05 | 333000

Molecular target: T1, Extracellular domain (ECD) of the …
Experiment: SPR, IgG captured via anti-dog Fc
Remark: another data set of the same source
Experimental: as §1

Row | Binder | Kd [nM] | koff [s⁻¹] | kon [M⁻¹ s⁻¹]
16 | B1 | 0.4 | 9.85e-05 | 246000
17 | B13 | 0.377 | 0.000105 | 279000
18 | B14 | 1.07 | 0.000253 | 236000
19 | B15 | 0.908 | 0.000208 | 230000
20 | B16 | 0.878 | 0.000206 | 235000
21 | B17 | 0.381 | 9.71e-05 | 255000

Molecular target: T2, Extracellular domain (ECD) of the …
Experiment: SPR, Fab-SASA captured on BSA;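 also: biacore T200 SPR, Fab-SASA variants from E. coli conditioned medium captured on BSA-coated CM5 chip, canine IL-4RA injected 120 s then 420 s dissociation, 1:1 model fit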
Experimental: Forty-four PML clones were selected from each library for expression in E. coli in 96 deep-well plates by inoculating into 2YT medium and inducing with 0.2 mM IPTG overnight at room temperature. The Fab secreted in the medium was analyzed for binding activity by completing an ELISA. […] The 39 unique clones were confirmed by an off-rate screening assay in an SPR assay performed on a Biacore T200. For the SPR analyses, bovine serum albumin (BSA) was immobilized to CM5 sensor chip. The sensor chip surface was activated with 50 mmol/L H-Hydroxysuccinimide and 200 mmol/L 1-ethyl-3-(3-dimethylaminopropyl) carbodiimide hydrochloride for 420 s. Afterwards, BSA diluted in 10 mM sodium acetate, pH 4.5 was injected. After the amine coupling reaction, the remaining active coupling sites on the chip surface were blocked with 1 mM ethanolamine hydrochloride. The selected Fab-SASA variants in conditioned medium were captured on the BSA-coated chips. The running buffer was HBS-EP (10 mM HEPES 500 mM NaCl, 3 mM EDTA, 0.05% Tween 20, pH 7.4). After equilibration, canine IL-4RA was injected for 120 seconds (association phase) followed by the injection of running buffer for 420 sec (dissociation phase). The off-rates of the Fab-SASA clones were obtained from fitting the experimental data locally to a 1:1 interaction model using the Biacore T200 evaluation software.

Row | Binder | Kd [nM] | Ratio WT-kd/clone-kd | koff [s⁻¹] | kon [M⁻¹ s⁻¹]
22 | B18 | 6.53 | 1.7 | 0.000562 | 86000
23 | B19 | 5.74 | 2.11 | 0.000451 | 78500
24 | B20 | 8.34 | 1.02 | 0.000932 | 112000
25 | B21 | 6.61 | 1.94 | 0.000492 | 74400
26 | B22 | 6.83 | 1.74 | 0.000548 | 80100

Molecular target: T1, Extracellular domain (ECD) of the …
Experiment: SPR, IgG captured via anti-dog H+L
Experimental: Affinities were determined by SPR on a Biacore T200. The antibodies were captured using a CM5 Series S chip amine coupled with an anti-dog H+L antibody (Jackson Immunoresearch). Antigen, canine IL-4RA (EQ ID NO:2), binding was then assessed at multiple concentrations starting at 100 nM using PBSP+ running buffer (Cytiva) with a flow rate of 30 μL/min. […] The length of the association time was 120 s and the dissociation time was run for 600 s. The chip surface was regenerated with 10 mM glycine.

Row | Binder | Kd [nM] | koff [s⁻¹] | kon [M⁻¹ s⁻¹]
27 | B23 | 5.54 | 0.00107 | 194000
28 | B24 | 6.06 | 0.00136 | 225000
29 | B3 | 2.72 | 0.000484 | 180000
